{
  "source": "the nanobody polyreactivity screen of Harvey et al. (2022)",
  "data": [
    {"test": "yeast display, Sf9 membrane polyspecificity reagent, FACS + sequencing; frameworks hold sequencing errors", "how_it_was_run": "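A nanobody's polyreactivity label depends on the gate it was sorted from. Yeast display cells were stained with 10% biotinylated, detergent-solubilized Sf9 membrane reagent for 1 hour at 4 °C, enriched on streptavidin microbeads and sorted by FACS. The low and high (top ~1%) gates were set on anti-HA fluorescence for expression and streptavidin fluorescence for reagent binding.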", "values": [
      {"sequence": "QVQLVESGGGLVQAGGSLRLSCAASGSIFSGNAMGWYRQAPGKERELVASINRSGGSTYYADSVKGRFTISRDNAKNTVYLLMNSLKPEDTAVYYCAARRVWLAGYDSWGQGTQVTVSS", "polyreactivity (PSR sort gate)": "low polyreactivity"},
      {"sequence": "QVQLVESGGGLVQAGGSLRLSCAASGSIFSGYAMGWYRQAPGKERELVAAINWTGDSTYYADSVKGRFTISRDNAKNTVYLQMNSLKPEDTAVYYCAAIRRQKGLWDYYYWGQGSQVTVSS", "polyreactivity (PSR sort gate)": "low polyreactivity"},
      {"sequence": "QVQLVESGGGLVQAGGSLRLSCAASGSIFSINAMGWYRQAPGKERELVAAISWDGGSTYYADSVKGRFTISRDNAKYTVYLQKNSLKPEDTAVYYCNAAGYVPRNIFAGSRSLRYDYWGQGTQVTVSS", "polyreactivity (PSR sort gate)": "high polyreactivity"},
      {"sequence": "QVQLVESGGGLVQAGGSLRLSCAASGSIFSINAMGWYRQAPGKERELVAVISWIGGNTYYADSVKGRFTISRDNAKNTVYLQMNSLKPEDTAVYYCAVATGPVSYRRYYWGQGTQVTVSS", "polyreactivity (PSR sort gate)": "high polyreactivity"},
      {"sequence": "QVQLVESGGGLVQAGGSLRLSCAASGSIFSINARGWYRQAPGKERELVAAITYSTGSTYYADSVKGRFTISRDNAKNTVYLQMNSLKPEDTAVYYCAAVYKRTYLHSQTYGYYYWGQGTQVTVSS", "polyreactivity (PSR sort gate)": "high polyreactivity"},
      {"sequence": "QVQLVESGGGLVQAGGSLRLSCAASGSIFSINTMGWYRQAPGKERELVAAITRSGSGTYYADSVKGRFTISRDNAKNTVYLQMNSLKPEDTAVYYCAKPAGARLGYWGQGTQVTVSS", "polyreactivity (PSR sort gate)": "low polyreactivity"},
      {"sequence": "QVQLVESGGGLVQAGGSLRLSCAASGSIFSINTMVWYRLAPGKERELVAAISRTGGSTYYADSVKGRFTNSRDNAKNTVYLQMNSLKPEDTAVYYCGKDRRRSTYEYWGQCTQVTVSS", "polyreactivity (PSR sort gate)": "high polyreactivity"},
      {"sequence": "QVQLVESGGGLVQAGGSLRLSCAASGSIFSIYAMGWYRQAPGKERELVASITRSSGRTYYADSVKGRFTISRDNAKNTVYLQMNSLKPEDTAVYYCAKDYIPLALDADDYWGQGTQVTVSS", "polyreactivity (PSR sort gate)": "low polyreactivity"},
      {"sequence": "QVQLVESGGGLVQAGGSLRLSCAASGSIFSKNAIGWYRQAPGKERELVDAISASGASTYYADSVKGRFTISRDNEKNTVYLQMNSLKPEDTAVYYCNADVSGVSSYGRSYEFYYWGQGTQVTVSS", "polyreactivity (PSR sort gate)": "low polyreactivity"},
      {"sequence": "QVQLVESGGGLVQAGGSLRLSCAASGSIFSKNTMGWYRQAPGKEREFVARISVRGGSTYYADSVKGRFTISRDNAKNTVYLQMNSLKPEDTAVYYCNAAHTVTQNSRNSDYWGQGTQVTVSS", "polyreactivity (PSR sort gate)": "high polyreactivity"},
      {"sequence": "QVQLVESGGGLVQAGGSLRLSCAASGSIFSKYVMGWYRQAPGKEMELVASITSGGRTNYADSVKGRFTISRDNAKNTVYLQMNSLKPEDTAVYYCAARALKTWYRSGVDYWGQGTQVTVSS", "polyreactivity (PSR sort gate)": "low polyreactivity"},
      {"sequence": "QVQLVESGGGLVQAGGSLRLSCAASGSIFSLNAMGWYRQAPGKERELVAAINSGGTSTYYADSVKGRFTMSRDNAKNTVYLHMKSLKPEDTAVYYCAKRQRDYSSVFDVDYWGQGTQVTVSS", "polyreactivity (PSR sort gate)": "low polyreactivity"},
      {"sequence": "QVQLVESGGGLVQAGGSLRLSCAASGSIFSLYAMGCYIQAHGKERELVAAISRGGSTNYADSVKGRFTISRDNAKNTVYLQMNSLKPEDTAVDYCNAGFGVRRKHITFYTWYDYWGQGTQVTVSS", "polyreactivity (PSR sort gate)": "low polyreactivity"},
      {"sequence": "QVQLVESGGGLVQAGGSLRLSCAASGSIFSNYAMGGYRQAPGKERELVAAISRNGGSTSYADSVKGRFTISRDNAKNTVYLQMNSLKPEDTAVYYCAKRYKTAQYYYWGQGTQVTVSS", "polyreactivity (PSR sort gate)": "high polyreactivity"},
      {"sequence": "QVQLVESGGGLVQAGGSLRLSCAASGSIFSPNAMGWYRQAPGKERELVATISFSGGRTYYADSVKGRFTISRDNAKNTVYLQMNSLKPEDTAVYYCAKAYYYTDMDYWGQGTQVTVSS", "polyreactivity (PSR sort gate)": "low polyreactivity"},
      {"sequence": "QVQLVESGGGLVQAGGSLRLSCAASGSIFSPYAMGWYRQAPGKERELVAAIRWGGGGTYADSVKGRFTISRDNAKNTVYLQMNSLKPEDTAVYYCAARRRSRRGYDYWGQGTQVTVSS", "polyreactivity (PSR sort gate)": "high polyreactivity"},
      {"sequence": "QVQLVESGGGLVQAGGSLRLSCAASGSIFSPYAMGWYRQAPGKERELVAAISFRASTTYYADSVKGRFTISRDNAKNTVYLQMNSLKPEDTAVYYCAASPLYSWFWGLYDYWGQGTQVTVSS", "polyreactivity (PSR sort gate)": "low polyreactivity"}
    ]}
  ]
}
